{"source": "patent US20220119469", "proteins": {"B1": {"name": "TEV protease (protein)", "chain": "GESLFKGPRDYNPISSTICHLTNESDGHTTSLYGIGFGPFIITNKHLFRRNNGTLLVQSLHGVFKVKNTTTLQQHLIDGRDMIIIRMPKDFPPFPQKLKFREPQREERICLVTTNFQTKSMSSMVSDTSCTFPSSDGIFWKHWIQTKDGQCGSPLVSTRDGFIVGIHSASNFTNTNNYFTSVPKNFMELLTNQEAQQWVSGWRLNADSVLWGGHKVFMSKPEEPFQPVKEATQLMN"}}, "key": {"[1]": {"target": "endogenous MyBP-C in wild type soleus tissue"}, "[2]": {"target": "T1, Spy-C cMyBP-C (cMyBP-C of Spy-C mice with a TEV protease recognition site and a SpyTag sequence in the linker between domains C7 and C8), uncut", "T1 chain": "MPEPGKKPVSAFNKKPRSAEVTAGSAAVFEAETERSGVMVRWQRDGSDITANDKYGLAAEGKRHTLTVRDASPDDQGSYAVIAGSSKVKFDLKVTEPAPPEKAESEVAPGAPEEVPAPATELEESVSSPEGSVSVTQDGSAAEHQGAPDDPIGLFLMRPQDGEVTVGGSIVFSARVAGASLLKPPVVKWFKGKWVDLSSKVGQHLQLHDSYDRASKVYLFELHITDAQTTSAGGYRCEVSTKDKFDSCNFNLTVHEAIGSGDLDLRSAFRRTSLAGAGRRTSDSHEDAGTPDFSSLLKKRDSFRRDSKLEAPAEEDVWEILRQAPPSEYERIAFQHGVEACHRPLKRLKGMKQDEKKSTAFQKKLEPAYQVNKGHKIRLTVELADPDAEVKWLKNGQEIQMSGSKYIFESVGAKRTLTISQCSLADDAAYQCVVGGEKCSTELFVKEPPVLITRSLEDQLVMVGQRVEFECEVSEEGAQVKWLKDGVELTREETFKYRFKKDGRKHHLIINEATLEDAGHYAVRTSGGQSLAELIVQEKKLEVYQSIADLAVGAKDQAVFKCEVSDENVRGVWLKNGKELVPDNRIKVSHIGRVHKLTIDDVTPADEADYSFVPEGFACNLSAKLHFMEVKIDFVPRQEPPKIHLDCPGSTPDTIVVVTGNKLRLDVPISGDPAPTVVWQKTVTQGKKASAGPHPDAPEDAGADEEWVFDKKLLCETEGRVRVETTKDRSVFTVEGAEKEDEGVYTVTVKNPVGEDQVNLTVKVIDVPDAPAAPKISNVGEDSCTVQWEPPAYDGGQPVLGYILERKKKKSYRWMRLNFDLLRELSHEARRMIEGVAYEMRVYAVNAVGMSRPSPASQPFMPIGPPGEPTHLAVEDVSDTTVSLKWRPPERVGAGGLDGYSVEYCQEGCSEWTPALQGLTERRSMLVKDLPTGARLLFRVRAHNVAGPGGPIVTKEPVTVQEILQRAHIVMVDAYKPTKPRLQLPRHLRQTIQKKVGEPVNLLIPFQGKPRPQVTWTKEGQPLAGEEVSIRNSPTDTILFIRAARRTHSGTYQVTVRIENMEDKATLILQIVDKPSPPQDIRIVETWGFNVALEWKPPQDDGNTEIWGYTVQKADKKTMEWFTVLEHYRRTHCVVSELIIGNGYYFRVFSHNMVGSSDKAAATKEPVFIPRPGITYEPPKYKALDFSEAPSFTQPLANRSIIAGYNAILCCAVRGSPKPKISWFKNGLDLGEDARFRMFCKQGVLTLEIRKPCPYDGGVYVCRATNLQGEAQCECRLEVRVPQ"}, "[3]": {"target": "endogenous MyBP-C of homozygous soleus tissue (with TEV site and SpyTag), uncut"}}, "data": [{"protein": "B1", "values": [{"measurement": "size on western blot", "setting": "[1]", "result": "the size of endogenous MyBP-C in wild type tissue is unaffected by TEVp, washing and addition of replacement protein"}, {"measurement": "cleavage in permeabilized myocytes", "setting": "[2]", "result": "Spy-C cMyBP-C was cleaved at the TEV site"}, {"measurement": "decrease in molecular weight on western blot", "setting": "[3]", "result": "endogenous MyBP-C domains C1-C7 in homozygous tissue are cleaved with TEV protease (TEVp), shown by a decrease in molecular weight"}]}]}
